Test results taken from patent US5756340A, “Insect control with multiple toxins” (The Regents of the University of California, priority 1995, dated 1998).

B1: AaIT: excitatory insect-selective scorpion toxin from Androctonus australis (protein, UniProt P01497 19-88, looked up)
Beta-insect excitatory toxin 1: KKNGYAVDSSGKAPECLLSNYCNNECTKVHYADKGYCCLLSCYCFGLNDDKKVLEISDTRKSYCDTTIIN
B2: LqhVI (protein)
chain: GVRDGYIAQPENCVYHCFPGSPGCDTLCKGDGASSGHCGFKEGHGLACWCNDLPDKVGIIVEGEKCH
B3: LqhIV (protein)
peptide: GVRDAYIADDKNCVYTCGANSYCNTECTKNGAESGYCQWFGKYGNACWCIKLPDKVPIRIPGKCR

Tests used:
Assay type in all cases: in vivo
Swiss Webster mice = test: LD50 to mice, subcutaneous injection; details: for toxicity towards mice / mammals (in words): Swiss Webster mice; for LD50 to Swiss Webster mice: single toxin, subcutaneous, 24 hours after injection
Procedure: (§1) The activities of four different insect toxins towards two different insects and towards mice were determined (since one prefers to use insect toxins that have little or no effect on mammals). These were purified by established methods from the respective crude venoms. Their toxicity towards mice and larvae of blow fly and lepidoptera was determined according to the method of Reed and Muench (1938).
The PU50 values of the toxins to blow fly larvae were in accordance with previously published results (Zlotkin et al., Biochim, 53, 1075-1078 (1971); and Eitan et al., Biochem., 29, 5941-5947 (1990)).
(§2) ^c Two replicates of eight mice were injected subcutaneously and the
to mice was determined 24 hours after injection.
as §2
LD50 to mice was determined 24 hours after injection.

[1] = test system: Heliothis virescens larvae; test: Paralysis (PU50) of lepidopterous larvae after toxin injection; details: single toxin injected; inability to move or turn when inverted, 24 hours after injection
Procedure: as §1
(§3) The PU50 values of the toxins to blow fly larvae were in accordance with previously published results (Zlotkin et al., Biochim, 53, 1075-1078 (1971); and Eitan et al., Biochem., 29, 5941-5947 (1990)). […]
each one of the toxins and the PU50 was determined as inability to
or turn when inverted on its back 24 hours after injection. […]

[2] = test system: Sarcophaga falculata larvae; test: Paralysis (PU50) of blow fly larvae after toxin injection; details: single toxin injected; contraction paralysis immediately, or flaccid/delayed paralysis 5 minutes after injection
Procedure: as §1, §3
one of the toxins and the PU50 were determined. The PU50 of
excitatory toxins AaIT, LqhVI, and LqhIT3 was determined as a
contraction paralysis immediately after injection. The PU50 of the
depressant toxin LqhIT2 was determined as a flaccid paralysis 5
after injection. The PU50 of the α insect toxins LqhαIT

Molecule	toxicity towards mice / mammals (in words) (Swiss Webster mice)	LD50 to Swiss Webster mice (Swiss Webster mice) [μg/20 g b.w.]	PU50 to Heliothis virescens larvae [1] [μg/100 mg b.w.]	PU50 to Sarcophaga falculata larvae [2] [μg/100 mg b.w.]
LqhαIT: α insect toxin from yellow scorpion Leuirus quinquestriatus hebraeus	higher toxicity	8.0	2.5	0.0025
B1	–	> 60	2.5	0.0025
B2	weak mammal toxicity	> 60	3.0	0.006
B3	no or weak mammal toxicity	12	0.5	0.1
